According to patent US9260501B2, “Peptide extended insulins” (priority 2006, dated 2016):

Experiments:
[1] = target: purified recombinant human insulin receptor - (minus) exon 11 (human) (UniProt P06213); test: SPA antibody-capture competition assay, displacement of A14 Tyr[125I]-human insulin from recombinant human insulin receptor minus exon 11; affinity relative to human insulin
human insulin receptor = human insulin receptor (Homo sapiens, UniProt P06213); test: Insulin receptor binding, SPA (Scintillation Proximity Assay) microtiterplate antibody capture assay; conditions: binding affinity relative to that of human insulin; purified recombinant human insulin receptor minus exon 11; A14 Tyr[125I]-human insulin tracer
human insulin receptor, sequence (P06213 28-746 isoform P06213-2 limits assumed): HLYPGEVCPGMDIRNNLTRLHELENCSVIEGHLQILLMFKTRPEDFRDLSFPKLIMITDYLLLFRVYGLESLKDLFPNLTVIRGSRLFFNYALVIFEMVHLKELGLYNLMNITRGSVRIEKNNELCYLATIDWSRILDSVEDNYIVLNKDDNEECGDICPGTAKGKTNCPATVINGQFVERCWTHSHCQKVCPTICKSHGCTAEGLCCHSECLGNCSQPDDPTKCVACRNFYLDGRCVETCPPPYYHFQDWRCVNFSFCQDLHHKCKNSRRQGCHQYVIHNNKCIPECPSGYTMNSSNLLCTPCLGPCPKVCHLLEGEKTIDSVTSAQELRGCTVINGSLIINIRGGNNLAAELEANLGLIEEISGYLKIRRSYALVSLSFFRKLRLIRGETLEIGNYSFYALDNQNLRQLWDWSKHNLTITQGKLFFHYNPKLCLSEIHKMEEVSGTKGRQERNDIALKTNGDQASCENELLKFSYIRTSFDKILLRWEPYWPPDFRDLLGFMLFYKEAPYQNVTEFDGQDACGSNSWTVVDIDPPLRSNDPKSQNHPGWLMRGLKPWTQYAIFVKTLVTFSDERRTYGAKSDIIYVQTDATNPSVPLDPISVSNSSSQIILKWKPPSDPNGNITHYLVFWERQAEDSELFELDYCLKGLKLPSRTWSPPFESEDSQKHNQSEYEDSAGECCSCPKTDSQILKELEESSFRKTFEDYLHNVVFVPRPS
human insulin receptor, sequence (P06213 763-1382 partner limits assumed): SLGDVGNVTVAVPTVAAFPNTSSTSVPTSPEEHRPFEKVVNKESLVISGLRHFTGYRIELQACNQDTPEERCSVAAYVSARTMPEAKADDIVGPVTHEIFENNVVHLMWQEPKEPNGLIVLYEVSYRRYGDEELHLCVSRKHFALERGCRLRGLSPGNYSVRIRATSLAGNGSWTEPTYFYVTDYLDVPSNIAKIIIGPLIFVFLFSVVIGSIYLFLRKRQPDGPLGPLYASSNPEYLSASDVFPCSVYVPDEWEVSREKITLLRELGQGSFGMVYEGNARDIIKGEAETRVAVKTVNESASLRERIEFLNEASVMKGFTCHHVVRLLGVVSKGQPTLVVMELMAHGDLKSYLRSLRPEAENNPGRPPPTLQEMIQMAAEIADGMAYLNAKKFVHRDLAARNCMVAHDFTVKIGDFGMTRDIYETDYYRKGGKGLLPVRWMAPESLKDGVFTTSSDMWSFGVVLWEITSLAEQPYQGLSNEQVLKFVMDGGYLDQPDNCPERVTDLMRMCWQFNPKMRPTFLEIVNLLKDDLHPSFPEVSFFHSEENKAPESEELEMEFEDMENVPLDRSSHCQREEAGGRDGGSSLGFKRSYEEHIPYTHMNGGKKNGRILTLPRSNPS
Experimental: These extended insulins were tested for biological insulin activity as measured by binding affinity to the human insulin receptor relative to that of human insulin as described below.
Insulin Receptor Binding of the Insulins of the Invention
The affinity of the insulins of the invention for the human insulin receptor can be determined by a SPA assay (Scintillation Proximity Assay) microtiterplate antibody capture assay. […] Reagent mix for a single Packard Optiplate (Packard No. 6005190) is composed of 2.4 μl of a 1:5000 diluted purified recombinant human insulin receptor − (minus) exon 11, an amount of a stock solution of A14 Tyr[125I]-human insulin corresponding to 5000 cpm per 100 μl of reagent mix, 12 μl of a 1:1000 dilution of F12 antibody, 3 ml of SPA-beads and binding buffer to a total of 12 ml. A total of 100 μl is then added and a dilution series is made from appropriate samples. To the dilution series is then added 100 μl of reagent mix and the samples are incubated for 16 hours while gently shaken. The phases are then separated by centrifugation for 1 min and the plates counted in a Top-counter. The binding data are fitted using the nonlinear regression algorithm in the GraphPad Prism 2.01 (GraphPad Software, San Diego, Calif.).

Substance | Relative insulin receptor binding [1] | Relative insulin receptor binding (human insulin receptor)
A21Q, A22-A51G, desB30 Human Insulin (from UniProt P01308) (ligand) | 17% | 
A21Q, A22-A57G, desB30 Human Insulin (from UniProt P01308) (ligand) | 20% | 
A22-39G desB30 Human Insulin (from UniProt P01308) (ligand) | 30% | 
A14E, A21Q, A22-A57G, B25H, desB30 Human Insulin (from UniProt P01308) (ligand) | 14% | 
A14E, A21Q, A22-A45G, B25H, desB30 Human Insulin (from UniProt P01308) (ligand) | 12% | 
A22-45G desB30 Human Insulin (from UniProt P01308) (ligand) | 25% | 
A14E, A21Q, A22-A62G, B25H, desB30 Human Insulin (from UniProt P01308) (ligand) | 2% | 
A14E, A21Q, A22-A45G, B(-6)-(-1)G, B25H, desB30 Human Insulin (from UniProt P01308) (ligand) | 10% | 
A21Q, A22-A45G, B(-12)-(-1)G, desB30 Human Insulin (from UniProt P01308) (ligand) | 16% | 
A21Q, A22-A45G, B(-6)-(-1G), desB30 Human Insulin (from UniProt P01308) (ligand) | 14% | 
A21Q, A22-A45G, B(-18)-(-1)G, desB30 Human Insulin (from UniProt P01308) (ligand) | 13% | 
A14E, A21Q, A22-A45G, B(-18)-(-1)G, B25H, desB30 Human Insulin (from UniProt P01308) (ligand) | 7.2% | 
A14E, A21Q, A22G-A51G, B25H, desB30 Human Insulin (from UniProt P01308) (ligand) | 12% | 
A22-27G desB30 Human Insulin (from UniProt P01308) (ligand) | 44% | 
A14E, A21Q, A22-A62G, B25H, desB30 Human Insulin [Example 20] |  | 2%
A14E, A21Q, A22-A45G, B(-12)-(-1)G, B25H, desB30 Human Insulin (from UniProt P01308) (ligand) | 11% | 
A21Q, A22-A45G, desB30 Human Insulin (from UniProt P01308) (ligand) | 14% | 
A22-33G desB30 Human Insulin (from UniProt P01308) (ligand) | 41% | 
